This note sets out measurements from patent US6979673 (University of Pennsylvania, dated 2005).

Sequences and labels used below:
T1: PRL (human prolactin, untagged or form not specified: serum PRL; PRL added to cell cultures) (human, UniProt P01236 29-227)
T1 sequence (looked up): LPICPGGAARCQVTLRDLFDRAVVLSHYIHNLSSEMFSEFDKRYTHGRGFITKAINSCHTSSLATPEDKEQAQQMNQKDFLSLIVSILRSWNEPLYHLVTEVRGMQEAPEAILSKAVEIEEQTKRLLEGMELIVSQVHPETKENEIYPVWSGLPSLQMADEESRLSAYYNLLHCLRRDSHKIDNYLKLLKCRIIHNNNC

B1: myc-tagged PRL (recombinant human prolactin from Drosophila S2 cells) (ligand, UniProt P01236 29-227, looked up, not shown: small tags and cut ends)
chain: T1 sequence (looked up)
notes: mature
B2: His-tagged CypB (cyclophilin B, recombinant, V5/His-tagged, from Drosophila S2 cells) (enzyme)
chain: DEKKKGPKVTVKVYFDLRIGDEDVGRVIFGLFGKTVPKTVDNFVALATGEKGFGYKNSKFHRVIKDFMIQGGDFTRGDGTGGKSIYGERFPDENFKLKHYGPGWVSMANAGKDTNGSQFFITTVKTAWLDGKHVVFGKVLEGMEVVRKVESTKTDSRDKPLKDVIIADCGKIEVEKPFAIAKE
notes: also called wild-type CypB; sepharose-conjugated, recombinant CypB; not shown: C-terminal bifunctional V5/His-tag of vector pAc5/V5-HisA

Test [1] deals with recombinant form of cyclophilin family member CypA (UniProt P62937 1-165, limits assumed). The test is described as follows: co-immunoprecipitation of admixed recombinant proteins.
The next test addresses growth hormone (GH) (human, UniProt P01241 27-217). The experiment in a line: cell-based or functional assay.
Test [2] concerns the target T1, PRL (human prolactin, untagged or form …). The test is described as follows: cell-based or functional assay.
Test [3] deals with B1. The test is described as follows: co-immunoprecipitation of admixed purified proteins, with cyclosporin A against without.
Protocol: Immunoblots were blocked for one hour at room temperature with 5% milk in PBS containing 1% TWEEN-20 (PBST) and immunoblotted with a monoclonal anti-myc antibody (1:1000, mAb 9E10) for one hour. Immunoblots were analyzed by incubation with an anti-mouse secondary antibody conjugated to horseradish peroxidase (1:2000, Boehringer Mannheim) for one hour followed by incubation with ECL Plus (Amersham Pharmacia Biotech) amnd exposure to Biomax film (Kodak).

Some results are limits rather than exact numbers.

recombinant form of cyclophilin family member CypA, sequence (P62937 whole entry): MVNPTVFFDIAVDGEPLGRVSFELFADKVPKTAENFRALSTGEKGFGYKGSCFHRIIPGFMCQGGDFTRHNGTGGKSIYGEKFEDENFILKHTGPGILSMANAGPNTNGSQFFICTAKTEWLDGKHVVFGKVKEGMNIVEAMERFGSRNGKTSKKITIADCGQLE
growth hormone (GH), sequence (P01241 27-217 limits assumed): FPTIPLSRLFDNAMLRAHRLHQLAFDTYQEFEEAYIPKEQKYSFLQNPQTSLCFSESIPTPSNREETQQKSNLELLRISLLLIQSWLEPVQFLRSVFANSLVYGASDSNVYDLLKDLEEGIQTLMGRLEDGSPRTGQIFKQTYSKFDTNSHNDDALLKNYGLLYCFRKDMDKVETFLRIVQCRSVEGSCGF

Consider B1, for which the binding result in test [1] is “no binding”.
Take B2: in the test with growth hormone (GH), the GH-driven proliferation worked out at 40 fold. Moreover, in test [2], the “PRL-driven growth of Nb2 cells (3H-thymidine)” value is not above 8 fold. In test [3], the “fold enhancement of the interaction on addition of CsA” value is approximately 10 fold.
